To fix the notation:
T1: FITC labeled BCMA (acrobiosystem, Cat. No. BCA-HF254) (UniProt Q02223 1-54, FITC labeled (site not stated))
T1 construct: Soluble labeled protein used to stain CAR-T cells; also called BCMA antigen protein; BCMA protein
T1 sequence (looked up): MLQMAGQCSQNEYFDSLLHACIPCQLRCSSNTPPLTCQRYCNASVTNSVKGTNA

B1: chimeric antigen receptor comprising humanized anti-BCMA single domain antibody BH86_V1, on CAR-T cells (other)
chain: QVQLVESGGGLVQAGESLRLSCAASGRAISSIVMAWWRQTPGAEREFVASINRWGGTPYYSDSVKGRFTISRDNSKNTLYLQMNSLRAEDTAVYYCAAASTLDSGYDYWGQGTLVTVSTTTPAPRPPTPAPTIASQPLSLRPEACRPAAGGAVHTRGLDFACDIYIWAPLAGTCGVLLLSLVITLYCKRGRKKLLYIFKQPFMRPVQTTQEEDGCSCRFPEEEEGGCELRVKFSRSADAPAYQQGQNQLYNELNLGRREEYDVLDKRRGRDPEMGGKPRRKNPQEGLYNELQKDKMAEAYSEIGMKGERRRGKGHDGLYQGLSTATKDTYDALHMQALPPR
B2: chimeric antigen receptor comprising humanized anti-BCMA single domain antibody BH86_V6, on CAR-T cells (other)
chain: B1 chain with D62N, T69A, L79I, Y80H, A88S, Q111H
B3: chimeric antigen receptor comprising humanized anti-BCMA single domain antibody BH86_V4, on CAR-T cells (other)
chain: B1 chain with Q111H
B4: chimeric antigen receptor comprising humanized anti-BCMA single domain antibody BH86_GKV3, on CAR-T cells (other)
chain: B1 chain with V2E, Q3V, A14P, E16G, N74H, S75A, R87K, A88S, E89A, L114Q
B5: chimeric antigen receptor comprising humanized anti-BCMA single domain antibody BH86_GKV2, on CAR-T cells (other)
chain: QEVLVESGGGLVQPGGSLRLSCAASGRAISSIVMAWWRQTPGAEREFVASINRWGGTPYYSDSVKGRFTISRDHAKNTLYLQMNSLKSADTAVYYCAAASTLDSGYDYWGPGTQVTVSTTTPAPRPPTPAPTIASQPLSLRPEACRPAAGGAVHTRGLDFACDIYIWAPLAGTCGVLLLSLVITLYCKRGRKKLLYIFKQPFMRPVQTTQEEDGCSCRFPEEEEGGCELRVKFSRSADAPAYQQGQNQLYNELNLGRREEYDVLDKRRGRDPEMGGKPRRKNPQEGLYNELQKDKMAEAYSEIGMKGERRRGKGHDGLYQGLSTATKDTYDALHMQALPPR
B6: chimeric antigen receptor comprising humanized anti-BCMA single domain antibody BH86_GKV1, on CAR-T cells (other)
chain: B5 chain with K87R, S88A, A89E, P111H
B7: chimeric antigen receptor comprising humanized anti-BCMA single domain antibody BH86_V2, on CAR-T cells (other)
chain: EVQLVESGGGLVKPGGSLRLSCAASGRAISSIVMAWVRQAPGKGLEWVASINRWGGTPYYSAPVKGRFTISRDDSKNTLYLQMNSLKTEDTAVYYCAAASTLDSGYDYWGQGTLVTVSSTTTPAPRPPTPAPTIASQPLSLRPEACRPAAGGAVHTRGLDFACDIYIWAPLAGTCGVLLLSLVITLYCKRGRKKLLYIFKQPFMRPVQTTQEEDGCSCRFPEEEEGGCELRVKFSRSADAPAYQQGQNQLYNELNLGRREEYDVLDKRRGRDPEMGGKPRRKNPQEGLYNELQKDKMAEAYSEIGMKGERRRGKGHDGLYQGLSTATKDTYDALHMQALPPR
B8: chimeric antigen receptor comprising humanized anti-BCMA single domain antibody BH60_V1, on CAR-T cells (other)
chain: QVQLVESGGGLVQPGGSLRLSCAVSGGIFTINDMAWFRQAPGKQRELVAHISRSGSTYYRDSVKGRFTISRDNSKNTLYLQMNSLRAEDTATYYCNSIDRPLSYGQGTLVTVSTTTPAPRPPTPAPTIASQPLSLRPEACRPAAGGAVHTRGLDFACDIYIWAPLAGTCGVLLLSLVITLYCKRGRKKLLYIFKQPFMRPVQTTQEEDGCSCRFPEEEEGGCELRVKFSRSADAPAYQQGQNQLYNELNLGRREEYDVLDKRRGRDPEMGGKPRRKNPQEGLYNELQKDKMAEAYSEIGMKGERRRGKGHDGLYQGLSTATKDTYDALHMQALPPR
B9: chimeric antigen receptor comprising humanized anti-BCMA single domain antibody BH60_GKV1, on CAR-T cells (other)
chain: B8 chain with A23V, V24A, S74A, T77S, T92V
B10: chimeric antigen receptor comprising humanized anti-BCMA single domain antibody BH60_GKV2, on CAR-T cells (other)
chain: B8 chain with V24A, S74A, T77S, T92V, L109Q
B11: chimeric antigen receptor comprising humanized anti-BCMA single domain antibody BH60_V6, on CAR-T cells (other)
chain: B8 chain with A23V, S62F, L78S, S84N
B12: chimeric antigen receptor comprising humanized anti-BCMA single domain antibody BH60_V5, on CAR-T cells (other)
chain: B8 chain with A23V, S62F
B13: chimeric antigen receptor comprising humanized anti-BCMA single domain antibody BH60_V3, on CAR-T cells (other)
chain: EVQLVESGGGLVQPGGSLRLSCVVSGGIFTINDMAWVRQAPGKGLEWVAHISRSGSTYYRDSVKGRFTISRDNAKNSLYLQMNSLRAEDTAVYYCNSIDRPLSYGQGTLVTVSSTTTPAPRPPTPAPTIASQPLSLRPEACRPAAGGAVHTRGLDFACDIYIWAPLAGTCGVLLLSLVITLYCKRGRKKLLYIFKQPFMRPVQTTQEEDGCSCRFPEEEEGGCELRVKFSRSADAPAYQQGQNQLYNELNLGRREEYDVLDKRRGRDPEMGGKPRRKNPQEGLYNELQKDKMAEAYSEIGMKGERRRGKGHDGLYQGLSTATKDTYDALHMQALPPR

Positions count from the first letter of the chain named.

The assay concerns the target T1, FITC labeled BCMA (acrobiosystem, Cat. …). Put plainly: flow cytometry, CAR-T cells stained with FITC labeled BCMA. The protocol: After culturing at 37° C. and 5% CO₂ for 10 days, FITC labeled BCMA (acrobiosystem, Cat. No. BCA-HF254) was used for binding specific staining, and the ability of the corresponding CAR-T cells to specifically bind to the BCMA antigen protein was detected by flow cytometry, which also reflected the expression level of the CAR molecule.
Regarding B1, the binding result is recorded as “binds”. Then B2, with “binds”. Take B3: the binding result is “binds”. For B4, the binding result is listed as “binds”. Then B5, with “binds”; and B6, with “binds”; and B7, with “binds”. Then B8, with “binds”; and B9, with “binds”. Then B10, with “binds”.

In the case of B11, the binding result is on record as “binds”. Consider B12, for which the binding result is “binds”.

As for B13, the binding result was “binds”.

These data come from patent US20240018251A1 (BIOHENG THERAPEUTICS, published 2024).
